Experimental data: patent US10746738B2, “Claudin-1 peptide reagents and methods” (THE REGENTS OF THE UNIVERSITY OF MICHIGAN, priority 2015, dated 2020)

Columns and labels:
claudin-1 (CLDN1) = biological target: T1, claudin-1 (CLDN1) (Homo sapiens, UniProt O95832); assay: siRNA knockdown of CLDN1 expression, peptide and antibody binding to SW620 cells; format: cell-based
T1 construct: endogenous in cells; host or cells: SW620 human colorectal adenocarcinoma cells
T1 sequence (O95832 1-211): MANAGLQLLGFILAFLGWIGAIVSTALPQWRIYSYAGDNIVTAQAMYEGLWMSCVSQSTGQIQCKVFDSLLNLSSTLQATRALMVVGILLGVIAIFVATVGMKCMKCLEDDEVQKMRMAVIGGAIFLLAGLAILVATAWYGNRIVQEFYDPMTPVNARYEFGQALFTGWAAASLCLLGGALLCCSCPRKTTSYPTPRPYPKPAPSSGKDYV
Method: CLDN1 expression was knocked down using Dharmacon On-Target Plus SMARTpool Human CLDN1 siRNA (Thermo Scientific) according to the manufacturer's protocol. SW620 cells were plated overnight on coverslips in a 12-well plate at 0.2×10^6 cells/mL. The following day, cells were transfected with 3 μL DharmaFECT1 and either 25 nM CLDN1 or control siRNA. After 72 h, transfected cells were analyzed for CLDN1 expression through immunocytochemistry, a peptide binding study, or a Western blot of the cell lysate. For the immunocytochemistry experiment, cells were fixed with ice-cold methanol for 20 minutes at −20° C., blocked for 1 h at RT with PBS+2% BSA, stained with anti-human CLDN1 antibody at 5 μg/mL for 1 h at RT, then with goat anti-Rabbit AF488 (1:500) for 1 h at RT before being mounted on slides with DAPI with Prolong Gold. siRNA-transfected cells were also stained with 5 μM RTS-Cy5.5 or SPT-Cy5.5 for 30 minutes at 4° C., fixed with 4% PFA for 10 minutes at RT, then mounted on slides. Simultaneously, transfected cells were lysed with RIPA buffer containing Roche Mini-Complete EDTA-free Protease Inhibitor for 10 minutes on ice, collected and spun at 20,000×g for 10 minutes at 4° C. Supernatant was saved, total protein concentration quantified via a BCA assay, and 10 ug protein of each sample run on a Novex 4-20% 1.5 mm protein gel before transferring to a PVDF membrane. The membrane was blocked with PBST+5% non-fat milk for 1 h at 4° C., stained with either rabbit anti-CLDN1 Ab or mouse anti-tubulin Ab at 4° C. overnight, then with anti-rabbit HRP (1:500, for CLDN1) or anti-mouse HRP (1:500, for tubulin) for 1 h at RT before developing.
The specificity of peptide binding was validated on siRNA knockdown. […] These cells were transfected with siRNA to knockdown cell surface expression of claudin-1. […] The fluorescence intensities (mean±std) are shown (FIG. 2H). […] Given the experimental design and mean-squared-errors shown in FIG. 2H, with triplicate slides we have 98% power to obtain P<0.01 for interactions that show a 3-fold difference of differences.

SW620 cells = assay: Apparent dissociation constant by flow cytometry; format: binding, human; details: 0-200 nM, 1 h at 4° C., R^2=0.95
Method: The apparent dissociation constant of RTS*-Cy5.5 to SW620 cells was measured. SW620 cells were washed two times with PBS+0.5% BSA, then 1×10^5 cells were incubated with RTS*Cy5.5 at dilutions ranging from 0-200 nM for 1 h at 4° C. Cells were then washed of unbound peptide 5 times with PBS+0.5% BSA before analyzing via flow cytometry (FACS Canto, BD). Sample means were used to calculate the equilibrium dissociation constant, kd, via nonlinear regression analysis using GraphPad Prism software.
The apparent dissociation constant (kd) of the peptides to cells in vitro was determined. The fluorescently-labeled peptide was be serially diluted in PBS at concentrations that ranged from 0 to 200 nM in 25 nM increments. Cells were incubated with the peptide, and the mean fluorescence intensities was measured on flow cytometry. The equilibrium dissociation constant kd=1/ka was calculated by performing a least squares fit of the data to the non-linear equation I=(I0+Imaxka[X])/([…]). I0 and Imax are the initial and maximum fluorescence intensities, corresponding to no peptide and at saturation, respectively, and [X] represents the concentration of the bound peptide. This approach is illustrated with RTS*-Cy5.5 in FIG. 3B, where kd=42 nM.

signal for siCL versus siCLDN1 cells (claudin-1 (CLDN1); SW620 cells, control siRNA versus CLDN1 siRNA, 3 replicate slides): 10.5 fold-change
binding to the surface of SW620 cells (claudin-1 (CLDN1); confocal microscopy): strong binding
Substance: RTS*-Cy5.5: RTSPSSR labeled at the C-terminus with Cy5.5 via a GGGSK linker
Kd (SW620 cells): 42 nM
